From patent US20230279089A1 (GlaxoSmithKline, published 2023)

B1: 13Y039-4B06-4324 (antibody, human IgG1, kappa, V domains shown)
VH: QVQLVQSGAEVKKPGASVKVSCKASGYTFRGYYMSWVRQAPGQGLEWMGWINPMSGETNYAQKFQGRVTMTRDTSISTAYMELSRLRSDDTAVYYCARDTGELDGMNWYFDLWGRGTLVTVSS
VL: EIVLTQSPATLSLSPGERATLSCRASQSVSSYLAWYQQKPGQAPRLLIYDASNRATGIPARFSGSGSGTDFTLTISSLEPEDFAVYYCQQSDSWPPTFGGGTKVEIKR
notes: Fully human IgG1 LAGA, kappa; HEK expressed
B2: 13Y039-4B06-4325 (antibody, human IgG1, kappa, V domains shown)
VH: QVQLVQSGAEVKKPGASVKVSCKASGYTFWGYYMSWVRQAPGQGLEWMGWINPQSGETNYAQKFQGRVTMTRDTSISTAYMELSRLRSDDTAVYYCARDTGELDGMNWYFDLWGRGTLVTVSS
VL: EIVLTQSPATLSLSPGERATLSCRASQSVSSYLAWYQQKPGQAPRLLIYDASNRATGIPARFSGSGSGTDFTLTISSLEPEDFAVYYCQQSDSWPPTFGGGTKVEIKR
notes: as for B1
B3: 13Y039-4B06-4328 (antibody, human IgG1, kappa, V domains shown)
VH: QVQLVQSGAEVKKPGASVKVSCKASGYTFHGYYMNWVRQAPGQGLEWMGWINPLSGETNYAQKFQGRVTMTRDTSISTAYMELSRLRSDDTAVYYCARDTGELDGMNWYFDLWGRGTLVTVSS
VL: EIVLTQSPATLSLSPGERATLSCRASQSVSSYLAWYQQKPGQAPRLLIYDASNRATGIPARFSGSGSGTDFTLTISSLEPEDFAVYYCQQSDSWPPTFGGGTKVEIKR
notes: as for B1
B4: 13Y039-4B06-4348 (antibody, human IgG1, kappa, V domains shown)
VH: QVQLVQSGAEVKKPGASVKVSCKASGYTFGGYYMSWVRQAPGQGLEWMGWINPNSGETYYAQKFQGRVTMTRDTSISTAYMELSRLRSDDTAVYYCARDTGELDGMNWYFDLWGRGTLVTVSS
VL: EIVLTQSPATLSLSPGERATLSCRASQSVSSYLAWYQQKPGQAPRLLIYDASNRATGIPARFSGSGSGTDFTLTISSLEPEDFAVYYCQQSDSWPPTFGGGTKVEIKR
notes: as for B1
B5: 13Y039-4B06-4351 (antibody, human IgG1, kappa, V domains shown)
VH: QVQLVQSGAEVKKPGASVKVSCKASGYTFSGYYMSWVRQAPGQGLEWMGWINPNSGETFYAQKFQGRVTMTRDTSISTAYMELSRLRSDDTAVYYCARDTGELDGMNWYFDLWGRGTLVTVSS
VL: EIVLTQSPATLSLSPGERATLSCRASQSVSSYLAWYQQKPGQAPRLLIYDASNRATGIPARFSGSGSGTDFTLTISSLEPEDFAVYYCQQSDSWPPTFGGGTKVEIKR
notes: as for B1
B6: 13Y039-4B06-4327 (antibody, human IgG1, kappa, V domains shown)
VH: QVQLVQSGAEVKKPGASVKVSCKASGYTFPGYYMTWVRQAPGQGLEWMGNINPNSGWTNYAQKFQGRVTMTRDTSISTAYMELSRLRSDDTAVYYCARDTGELDGMNWYFDLWGRGTLVTVSS
VL: EIVLTQSPATLSLSPGERATLSCRASQSVSSYLAWYQQKPGQAPRLLIYDASNRATGIPARFSGSGSGTDFTLTISSLEPEDFAVYYCQQSDSWPPTFGGGTKVEIKR
notes: as for B1
B7: 13Y039-4B06-4364 (antibody, human IgG1, kappa, V domains shown)
VH: QVQLVQSGAEVKKPGASVKVSCKASGYTFRGYYMSWVRQAPGQGLEWMGWINPNSGETIYAQKFQGRVTMTRDTSISTAYMELSRLRSDDTAVYYCARDTGELDGMNWYFDLWGRGTLVTVSS
VL: EIVLTQSPATLSLSPGERATLSCRASQSVSSYLAWYQQKPGQAPRLLIYDASNRATGIPARFSGSGSGTDFTLTISSLEPEDFAVYYCQQSDSWPPTFGGGTKVEIKR
notes: as for B1
B8: 13Y039-127G03-2890 (antibody, human IgG1, kappa, V domains shown)
VH: QVQLVQSGAEVKKPGSSVKVSCKASGGTFSSYAISWVRQAPGQGLEWMGGIIPVFGSAYYAQKFQGRVTITADESTSTAYMELSSLRSEDTAVYYCAGEGRAYYGSESYDDSDYMDVWGKGTTVTVSS
VL: DIQMTQSPSSLSASVGDRVTITCQASQDISNYLNWYQQKPGKAPKLLIYDASNLETGVPSRFSGSGSGTDFTFTISSLQPEDIATYYCQQADIFPLTFGGGTKVEIKR
notes: as for B1
B9: 13Y039-152B02-2940 (antibody, human IgG1, kappa, V domains shown)
VH: QVQLVQSGAEVKKPGSSVKVSCKASGGTFSSDAISWVRQAPGQGLEWMGGIITNFGTATYAQKFQGRVTITADESTSTAYMELSSLRSEDTAVYYCARDVGVQLVYHGAFDIWGQGTMVTVSS
VL: DIQMTQSPSSLSASVGDRVTITCQASQDISNYLNWYQQKPGKAPKLLIYDASNLATGVPSRFSGSGSGTDFTFTISSLQPEDIATYYCQQDDYLPITFGGGTKVEIKR
notes: as for B1
B10: 13Y039-152B02-2948 (antibody, human IgG1, kappa, V domains shown)
VH: QVQLVQSGAEVKKPGSSVKVSCKASGGTFSDFAISWVRQAPGQGLEWMGGIIPIYGTASYAQKFLGRVTITADESTSTAYMELSSLRSEDTAVYYCARDVGVQLVYHGAFDIWGQGTMVTVSS
VL: DIQMTQSPSSLSASVGDRVTITCQASQDISNYLNWYQQKPGKAPKLLIYDASNLATGVPSRFSGSGSGTDFTFTISSLQPEDIATYYCQQDDYLPITFGGGTKVEIKR
notes: as for B1
B11: 13Y039-152B02-2935 (antibody, human IgG1, kappa, V domains shown)
VH: QVQLVQSGAEVKKPGSSVKVSCKASGGTFSESAISWVRQAPGQGLEWMGGIIPTFDTTNYAQKFQGRVTITADESTSTAYMELSSLRSEDTAVYYCARDVGVQLVYHGAFDIWGQGTMVTVSS
VL: DIQMTQSPSSLSASVGDRVTITCQASQDISNYLNWYQQKPGKAPKLLIYDASNLATGVPSRFSGSGSGTDFTFTISSLQPEDIATYYCQQDDYLPITFGGGTKVEIKR
notes: as for B1

Legend:
[1] = target: T1, Human BMP1 CD+CUB1 truncated antigen (human, UniProt P13497 121-434, limits assumed); test: SPR, mAb captured on protein A, HBS-EP
T1 construct: domain: CD+CUB1
T1 sequence (looked up): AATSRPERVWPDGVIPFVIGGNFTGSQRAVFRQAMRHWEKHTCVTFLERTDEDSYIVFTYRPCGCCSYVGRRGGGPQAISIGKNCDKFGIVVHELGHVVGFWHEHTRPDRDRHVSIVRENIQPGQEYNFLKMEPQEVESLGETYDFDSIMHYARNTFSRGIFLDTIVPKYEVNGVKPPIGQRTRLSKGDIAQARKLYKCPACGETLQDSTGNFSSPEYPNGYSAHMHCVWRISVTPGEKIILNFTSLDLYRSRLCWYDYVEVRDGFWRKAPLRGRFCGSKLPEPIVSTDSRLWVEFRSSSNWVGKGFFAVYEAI
Experimental: The 16 lead panel antibodies expressed in HEK cells were evaluated for binding to a truncated version of human BMP containing the catalytic domain and truncated domain (Human BMP1 CD+CUB1 truncated antigen) by SPR using BIACORE T200. HBS-EP+ buffer was used and the experiment run at 25° C. Protein A was immobilised to a CM5 sensor chip via amine coupling. The lead panel antibodies were captured onto protein A surface. Human BMP1 CD+CUB1 was then passed over the captured antibodies at various concentrations.

Human TLL1 = target: T2, Human TLL1 (human, UniProt O43897 148-1013, limits assumed); test: cell-based or functional assay
T2 sequence (looked up): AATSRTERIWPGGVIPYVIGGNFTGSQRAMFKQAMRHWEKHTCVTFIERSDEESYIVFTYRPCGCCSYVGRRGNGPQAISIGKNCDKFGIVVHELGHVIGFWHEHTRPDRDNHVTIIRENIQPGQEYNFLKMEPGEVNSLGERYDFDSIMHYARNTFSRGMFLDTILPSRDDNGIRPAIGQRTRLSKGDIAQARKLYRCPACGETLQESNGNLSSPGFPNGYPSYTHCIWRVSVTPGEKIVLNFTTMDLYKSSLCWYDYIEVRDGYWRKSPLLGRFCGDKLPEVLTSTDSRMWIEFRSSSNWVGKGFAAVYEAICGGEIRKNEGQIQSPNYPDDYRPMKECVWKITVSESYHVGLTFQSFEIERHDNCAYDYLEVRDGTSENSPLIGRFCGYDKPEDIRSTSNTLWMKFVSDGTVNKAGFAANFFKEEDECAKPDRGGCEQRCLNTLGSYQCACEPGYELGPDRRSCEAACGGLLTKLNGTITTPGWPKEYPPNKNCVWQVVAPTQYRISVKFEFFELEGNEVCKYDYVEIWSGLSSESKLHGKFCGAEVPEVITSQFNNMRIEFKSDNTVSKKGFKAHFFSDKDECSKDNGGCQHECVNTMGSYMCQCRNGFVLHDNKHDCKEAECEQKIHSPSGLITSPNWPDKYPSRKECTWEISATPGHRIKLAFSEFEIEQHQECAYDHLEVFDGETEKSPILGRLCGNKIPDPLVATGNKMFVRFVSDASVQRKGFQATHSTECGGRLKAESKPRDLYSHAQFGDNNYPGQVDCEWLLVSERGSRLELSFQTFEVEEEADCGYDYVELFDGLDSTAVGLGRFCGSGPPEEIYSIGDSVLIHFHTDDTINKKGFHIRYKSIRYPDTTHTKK

Human BMP1-1 = target: T3, Human BMP1-1 (human, UniProt P13497-2 121-730, limits assumed); test: cell-based or functional assay
T3 sequence (looked up): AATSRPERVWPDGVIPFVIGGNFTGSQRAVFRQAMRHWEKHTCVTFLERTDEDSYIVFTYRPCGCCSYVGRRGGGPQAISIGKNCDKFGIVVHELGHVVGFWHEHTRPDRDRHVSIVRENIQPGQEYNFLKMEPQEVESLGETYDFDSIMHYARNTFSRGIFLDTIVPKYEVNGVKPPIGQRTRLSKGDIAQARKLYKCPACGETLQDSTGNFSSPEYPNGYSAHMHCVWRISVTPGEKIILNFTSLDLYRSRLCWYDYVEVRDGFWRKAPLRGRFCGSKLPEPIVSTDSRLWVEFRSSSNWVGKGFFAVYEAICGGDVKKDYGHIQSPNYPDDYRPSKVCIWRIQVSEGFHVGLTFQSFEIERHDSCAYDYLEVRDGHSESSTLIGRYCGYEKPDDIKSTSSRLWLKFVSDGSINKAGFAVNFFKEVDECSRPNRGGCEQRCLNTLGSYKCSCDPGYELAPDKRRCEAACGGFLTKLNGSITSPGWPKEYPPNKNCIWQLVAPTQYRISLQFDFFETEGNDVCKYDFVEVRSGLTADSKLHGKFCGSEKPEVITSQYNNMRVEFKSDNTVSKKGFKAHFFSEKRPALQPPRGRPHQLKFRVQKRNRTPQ

Kd [1]	IC50, FRET enzyme activity, 250 pM biotinylated huTLL-1 (Human TLL1)	IC50, FRET enzyme activity, 62.5 pM huBMP1 (Human BMP1-1)	Binder
3.9 nM	30 pM	20 pM	B1
2.8 nM	20 pM	30 pM	B2
2.8 nM	40 pM	30 pM	B3
1.5 nM	40 pM	20 pM	B4
1.9 nM	50 pM	30 pM	B5
1.5 nM	10 pM	10 pM	B6
2.4 nM	60 pM	20 pM	B7
0.3 nM	18.2 nM	0.4 nM	B8
1.9 nM	50 pM	0.13 nM	B9
1.4 nM	80 pM	0.31 nM	B10
0.8 nM	90 pM	0.25 nM	B11
